Measured values published in patent publication US20230227537A1.
Where “and” joins values, the source holds several entries; their conditions need not be identical. Equal values may be shown once.

Assays:
[1] = target: recombinant prefusion stabilized SARS-CoV-2-2P spike protein (SARS-CoV-2) (UniProt P0DTC2)
[2] = target: Mouse IgG1 Fc fused SARS-CoV-2 RBD (Sino Biological) (SARS-CoV-2; mouse) (UniProt P0DTC2)

D72-02: VHH72-GS-hIgG1hinge-hIgG1Fc (Fc fusion)
EC50 [1]: 0.0223 mg/L

VHH72-T60W-hIgG1 Fc (P. pastoris supernatant) (Fc fusion)
% Signal decrease over 8 min dissociation [2]: 13% and 15%
Kd [2]: 75.7 nM and 53.1 nM
kon [2]: 41500 M⁻¹ s⁻¹ and 49700 M⁻¹ s⁻¹

VHH72_D61Q - (GGGGS)x2-hIgG1.Hinge-hIgG1.Fc (Fc fusion)
% Signal decrease over 8 min dissociation [2]: 8% and 10%
Kd [2]: 0.0661 nM and 0.0642 nM
koff [2]: 0.000183 s⁻¹ and 0.000205 s⁻¹
kon [2]: 2.76e+06 M⁻¹ s⁻¹ and 3.19e+06 M⁻¹ s⁻¹

VHH72_V100L - (GGGGS)x2-hIgG1.Hinge-hIgG1.Fc (Fc fusion)
% Signal decrease over 8 min dissociation [2]: 23% and 25%
Kd [2]: 0.076 nM and 0.0771 nM
koff [2]: 0.000557 s⁻¹ and 0.000637 s⁻¹
kon [2]: 7.34e+06 M⁻¹ s⁻¹ and 8.26e+06 M⁻¹ s⁻¹
